Data reported in the Immune Epitope Database (IEDB).

Assays:
HLA-A*24:02 = test: IEDB peptide-MHC binding, purified MHC/competitive/radioactivity; filed as Kd, often an IC50 or EC50 that approximates it; ≥ and ≤ were set here for values at or beyond the usual limits of such assays
HLA-B*53:01 = test: as above
HLA-A*01:01 = test: as above
HLA-B*15:01 [1] = test: as above
HLA-B*40:01 = test: as above
HLA-A*30:01 = test: as above
HLA-B*46:01 = test: IEDB peptide-MHC binding, purified MHC/competitive/fluorescence; filed as Kd, often an IC50 or EC50 that approximates it; ≥ and ≤ were set here for values at or beyond the usual limits of such assays
HLA-A*30:02 = test: IEDB peptide-MHC binding, purified MHC/competitive/radioactivity; filed as Kd, often an IC50 or EC50 that approximates it; ≥ and ≤ were set here for values at or beyond the usual limits of such assays
HLA-B*44:03 = test: as above
HLA-B*44:02 = test: as above
HLA-B*57:01 = test: IEDB peptide-MHC binding, purified MHC/direct/fluorescence; filed as Kd, often an IC50 or EC50 that approximates it; ≥ and ≤ were set here for values at or beyond the usual limits of such assays
HLA-B*58:01 = test: as above
HLA-A*02:01 [2] = test: IEDB peptide-MHC binding, purified MHC/competitive/fluorescence; filed as Kd, often an IC50 or EC50 that approximates it; ≥ and ≤ were set here for values at or beyond the usual limits of such assays
HLA-A*26:01 = test: IEDB peptide-MHC binding, purified MHC/competitive/radioactivity; filed as Kd, often an IC50 or EC50 that approximates it; ≥ and ≤ were set here for values at or beyond the usual limits of such assays; conditions: source organism: Dengue virus 2 Jamaica/1409/1983
HLA-A*23:01 = test: as above
HLA-A*11:01 = test: as above; conditions: source organism: Dengue virus 4 Philippines/H241/1956
HLA-A*03:01 [3] = test: as above; conditions: source organism: Dengue virus 4 Philippines/H241/1956
HLA-B*15:01 [4] = test: IEDB peptide-MHC binding, purified MHC/competitive/fluorescence; filed as Kd, often an IC50 or EC50 that approximates it; ≥ and ≤ were set here for values at or beyond the usual limits of such assays
HLA-B*15:01 [5] = test: IEDB peptide-MHC binding, purified MHC/direct/fluorescence; filed as Kd, often an IC50 or EC50 that approximates it; ≥ and ≤ were set here for values at or beyond the usual limits of such assays; conditions: source organism: SARS-CoV1
HLA-A*02:01 [6] = test: as above; conditions: source organism: SARS-CoV1
HLA-A*31:01 = test: as above; conditions: source organism: SARS-CoV1
HLA-A*03:01 [7] = test: as above; conditions: source organism: SARS-CoV1
[8] = source organism: Dengue virus 2 Jamaica/1409/1983
[9] = source organism: Vaccinia virus WR
[10] = source organism: Dengue virus 4 Philippines/H241/1956
[11] = source organism: Dengue virus 3 Martinique/1243/1999
[12] = source organism: Dengue virus 3 Sri Lanka/1266/2000
[13] = source organism: Yersinia pestis Antiqua
[14] = source organism: Giardia lamblia ATCC 50803
[15] = source organism: Vaccinia virus Copenhagen
[16] = source organism: Dengue virus 1 Singapore/S275/1990
[17] = source organism: Escherichia coli B171
[18] = source organism: Influenza A virus

Sequence: WYAQIQPHWI
- Kd (HLA-A*24:02; [8]): 49.3 nM

Sequence: TPRMCTREEF
- Kd (HLA-B*53:01; [8]): 1300 nM

Sequence: LTASLVMLL
- Kd (HLA-A*01:01; source organism: Dengue virus 4 Dominica/814669/1981): 1900 nM

Sequence: EQKAYVPAM
- Kd (HLA-B*15:01 [1]; [9]): 0.773 nM

Sequence: FEEYKRSGI
- Kd (HLA-B*40:01; [10]): 1290 nM

Sequence: GGSLVRCPLS
- Kd (HLA-A*30:01; [10]): 2430 nM

Sequence: YIGGTTQAF
- Kd (HLA-B*46:01; source organism: Francisella tularensis subsp. tularensis FSC198): 4420 nM

Sequence: ISQHNHRPGY
- Kd (HLA-A*01:01; [11]): 15000 nM
- Kd (HLA-A*30:02; [11]): 99.8 nM
- Kd (HLA-A*30:01; [11]): 12.2 nM

Sequence: GECIKTCVF
- Kd (HLA-B*15:01 [1]; [9]): 115 nM

Sequence: EEFWKLVDR
- Kd (HLA-B*44:03; [12]): 3110 nM

Sequence: EEEEAGVLW
- Kd (HLA-B*44:03; [8]): 162 nM
- Kd (HLA-B*44:02; [8]): 84.7 nM

Sequence: ASSALDAHF
- Kd (HLA-B*57:01; [13]): 396 nM
- Kd (HLA-B*58:01; [13]): 4.4 nM

Sequence: LIIKLLLPG
- Kd (HLA-B*15:01 [1]; [9]): 1120 nM

Sequence: DIRTLLPILL
- Kd (HLA-A*02:01 [2]; source organism: Variola virus): 737 nM

Sequence: SARGLCNTW
- Kd (HLA-B*57:01; [14]): 112 nM
- Kd (HLA-B*58:01; [14]): 56.5 nM

Sequence: MTDKTPVHSW
- Kd (HLA-B*53:01; [10]): 891 nM
- Kd (HLA-B*44:02; [10]): 1410 nM

Sequence: VVRLLTKPWD
- Kd (HLA-A*30:01; [8]): 3780 nM

Sequence: LGRANITHF
- Kd (HLA-B*15:01 [1]; [9]): 6.73 nM

Sequence: HVKAFYKFI
- Kd (HLA-A*30:01; [9]): 0.346 nM

Sequence: LGFDVVAYF
- Kd (HLA-B*15:01 [1]; [15]): 67.3 nM

Sequence: SAKNSWLNL
- Kd (HLA-A*30:01; [9]): 0.574 nM

Sequence: KCLNIMLGK
- Kd (HLA-A*30:01; source organism: Mammarenavirus brazilense): 24.9 nM

Sequence: GVPLLAIGCY
- Kd (HLA-A*30:02; [8]): 3350 nM
- Kd (HLA-A*26:01): 128 nM

Sequence: AENHHHATML
- Kd (HLA-B*44:03; [16]): 189 nM
- Kd (HLA-B*40:01; [16]): 39.9 nM
- Kd (HLA-B*44:02; [16]): 55.7 nM

Sequence: FPQSNSPIE
- Kd (HLA-B*53:01; [10]): 243 nM

Sequence: KNRNSKRSV
- Kd (HLA-A*30:01; [9]): 32.7 nM

Sequence: LQGRGPLKLF
- Kd (HLA-B*15:01 [1]; [8]): 135 nM

Sequence: LYAVATTFV
- Kd (HLA-A*24:02; [8]): 66.4 nM

Sequence: WMVHRQWFF
- Kd (HLA-A*23:01; [11]): 125 nM
- Kd (HLA-A*24:02; [11]): 835 nM

Sequence: KVRKIISKI
- Kd (HLA-A*30:01; [9]): 27.2 nM

Sequence: HEWMTTEDM
- Kd (HLA-B*44:03; [8]): 1530 nM
- Kd (HLA-B*40:01; [8]): 381 nM
- Kd (HLA-B*44:02; [8]): 1960 nM

Sequence: LQRKHGGML
- Kd (HLA-B*15:01 [1]; [11]): 31.2 nM

Sequence: EISSTFNRF
- Kd (HLA-B*15:01 [1]; [9]): 131 nM

Sequence: LTDGPERVIL
- Kd (HLA-A*01:01; [11]): 11800 nM

Sequence: SLAALFYSL
- Kd (HLA-A*02:01 [2]; source organism: Bacillus anthracis str. A0488): 1.8 nM

Sequence: RTEAKSALK
- Kd (HLA-A*11:01): 177 nM
- Kd (HLA-A*03:01 [3]): 87.6 nM
- Kd (HLA-A*30:01; [10]): 476 nM

Sequence: GEHKKLAEAI
- Kd (HLA-B*40:01; [8]): 53.7 nM

Sequence: EEYVDYMPVM
- Kd (HLA-B*44:03; [10]): 869 nM

Sequence: VQYRGLYQI
- Kd (HLA-B*15:01 [4]; [17]): 107 nM
- Kd (HLA-A*02:01 [2]; [17]): 125 nM

Sequence: NGVVTTSGTY
- Kd (HLA-A*30:02; source organism: Dengue virus 1 Brazil/97-11/1997): 694 nM

Sequence: FQNVNKITY
- Kd (HLA-B*15:01 [4]; [18]): 154 nM
- Kd (HLA-B*46:01; [18]): 3000 nM

Sequence: KMSEYKGPV
- Kd (HLA-B*15:01 [5]): 6670 nM
- Kd (HLA-A*02:01 [6]): 1520 nM
- Kd (HLA-A*31:01): 2090 nM
- Kd (HLA-A*03:01 [7]): 10600 nM

Sequence: GIFPYSIPAT
- Kd (HLA-A*30:01; [12]): ≥ 70400 nM

Sequence: SRNSTHEMYW
- Kd (HLA-B*44:03; [8]): 1370 nM
- Kd (HLA-B*44:02; [8]): 6360 nM

Sequence: EIVNLLDNKV
- Kd (HLA-A*02:01 [2]; [15]): ≥ 20000 nM

Sequence: NEGIMAVGI
- Kd (HLA-B*44:03; [16]): 160 nM
- Kd (HLA-B*44:02; [16]): 48 nM

Sequence: AWLVHRQWF
- Kd (HLA-A*23:01; [8]): 340 nM
- Kd (HLA-A*24:02; [8]): 164 nM
